Consider 2 molecules from US20190153112A1 (IMMUTEP S A S, published 2019).

The assay has as its target T1, IMP321 (recombinant soluble human LAG-3Ig fusion protein) (human, UniProt P18627 23-450).
T1 construct: extracellular domain; also called sLAG-3Ig; LC1
T1 sequence (looked up): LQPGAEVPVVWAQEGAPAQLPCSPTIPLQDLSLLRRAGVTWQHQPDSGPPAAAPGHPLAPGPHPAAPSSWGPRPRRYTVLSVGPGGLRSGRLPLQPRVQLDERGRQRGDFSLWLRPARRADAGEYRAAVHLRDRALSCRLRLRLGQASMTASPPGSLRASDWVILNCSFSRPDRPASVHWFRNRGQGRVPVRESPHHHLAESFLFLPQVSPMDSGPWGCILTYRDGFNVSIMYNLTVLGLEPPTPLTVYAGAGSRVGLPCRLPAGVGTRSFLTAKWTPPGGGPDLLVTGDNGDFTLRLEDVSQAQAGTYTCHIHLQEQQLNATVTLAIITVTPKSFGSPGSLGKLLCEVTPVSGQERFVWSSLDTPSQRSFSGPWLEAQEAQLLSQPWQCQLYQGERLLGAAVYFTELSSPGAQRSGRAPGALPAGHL
Briefly: Biacore T200 SPR, antibody immobilized on C1 chip, IMP321 0.078-2.5 nM as analyte, 25 °C, 1:1 fit, average of three runs. The protocol: A Biacore™ surface plasmon resonance analysis was performed using the chimeric antibody Chim13E2IgG4 (comprising the chimeric heavy chain 13E2IgG4mut, and the chimeric light chain 13E2IgK, described in Example 17), or the humanized 13E2 antibody (IMP761) described in Example 18, covalently immobilized to a C1 sensor chip. The coating was performed in 10 mM sodium acetate, pH 5.0, to reach 13±1 RU. The recombinant human LAG-3Ig protein (IMP321) was then passed over the captured antibodies at 6 different concentrations, ranging from 0.078-2.5 nM, in analysis buffer (10 mM HEPES pH 7.4, 150 mM NaCl, 3 mM EDTA, 0.05% Tween 20) at 25° C., with regeneration in every cycle. The analysis was carried out on Biacore™ T200 and the data was fitted using the kinetic global fit (Langmuir 1:1) model. The kinetics parameters are recorded in Table 29, and represent the average of three runs.

B1: chimeric 13E2-human IgG4 antibody Chim13E2IgG4 (antibody, V domains shown)
VH: QVTLKESGPGILQPSQTLSLTCSFSGFSLSTSGMGLGWIRQPSGKGLEWLTHIWWDDIKRYNPDLRSRLTISKDTSSSQIFLKIASVDTADTATYYCARIVEGSYSSSYFDVWGAGTTVTVSS
VL: DIVMTQPHKFMSTSVEDRVTITCKASQDVIFDVAWYQQKPGQSPKLLIYSASSRVSGVPDRFTGSGSGTDFTFTISSVQAEDLAVYYCQQHYSTPYTFGGGTTLEIKR
notes: The light chain is the 13E2 VL with wild-type human kappa; also called chimeric 13E2 IgG4; heavy chain 13E2IgG4mut
For the molecule B1, the Kd was 0.0219 nM, the koff is 0.00064 s⁻¹ and the kon came out at 2.9e+07 M⁻¹ s⁻¹.

B2: humanized 13E2 monoclonal antibody IMP761 (antibody, human IgG4 S228P, kappa, V domains shown)
VH: QITLKESGPTLVKPTQTLTLTCTFSGFSLSTSGMGLGWIRQPPGKTLEWLTHIWWDDIKRYNPDLRSRLSITKDTSKNQVVLTMTNMDPLDTGTYYCARIVEGSYSSSYFDVWGQGTLVTVSS
VL: DIVMTQTPSSLSASVGDRVTITCKASQDVIFDVAWYQQRPGQAPKLLIYSASSRVSGVPSRFSGSGSGTDFTLTISSLQPEDFATYYCQQHYSTPYTFGQGTRLDIKR
notes: Human IgG4 (S228P) with kappa light chain; also called humanized 13E2 IgG4; VH4/VL3
Regarding B2, the Kd is 0.0228 nM, the koff was 0.00066 s⁻¹ and the kon came out at 2.9e+07 M⁻¹ s⁻¹.
